# T1: GFP-STX17, P56962
# T1 chain: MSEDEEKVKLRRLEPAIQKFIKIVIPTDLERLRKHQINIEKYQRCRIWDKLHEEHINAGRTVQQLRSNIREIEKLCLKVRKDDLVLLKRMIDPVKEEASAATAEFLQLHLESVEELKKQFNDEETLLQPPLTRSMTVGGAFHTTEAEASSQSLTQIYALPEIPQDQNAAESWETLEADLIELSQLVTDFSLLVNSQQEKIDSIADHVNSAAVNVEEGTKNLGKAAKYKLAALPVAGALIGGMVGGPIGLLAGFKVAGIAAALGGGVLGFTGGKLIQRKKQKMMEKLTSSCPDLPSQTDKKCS
# T2: GST-ULK1 279–525 (from bacteria) (UniProt O75385 279-525)
# T2 construct: in the vector pGEX-4t-2; source: E. coli BL21 codon plus, purified
# T2 sequence (looked up): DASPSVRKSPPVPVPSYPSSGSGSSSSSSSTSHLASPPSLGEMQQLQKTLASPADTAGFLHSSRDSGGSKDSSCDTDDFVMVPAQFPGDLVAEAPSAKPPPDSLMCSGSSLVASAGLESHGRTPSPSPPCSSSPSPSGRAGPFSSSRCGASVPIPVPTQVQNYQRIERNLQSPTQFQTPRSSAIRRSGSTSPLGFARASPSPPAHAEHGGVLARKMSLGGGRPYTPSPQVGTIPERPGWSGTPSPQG
# How the values were obtained:
# GFP-STX17, P56962 = target: T1, GFP-STX17, P56962; experiment: proximity ligation; GFP-STX17 co-transfected with Myc-ULK1 variants or Myc vector into HeLa; anti-Myc and anti-GFP antibodies; with or without serum starvation; settings: remark: other sources report otherwise
# [1] = target: T2, GST-ULK1 279–525 (from bacteria); experiment: pull-down; GST-ULK1 279–525 and His-STX17 157–275 purified from bacteria, incubated in IP lysis buffer with glutathione beads for 4 h at 4 °C; western blot with His antibody; settings: both partners purified
"fold increase of the PLA signal with serum starvation over no starvation (GFP-STX17, P56962) [fold]",binding result [1],Binder
2.5,,"Myc-ULK1 WT, O75385 1-1050 (enzyme) MEPGRGGTETVGKFEFSRKDLIGHGAFAVVFKGRHREKHDLEVAVKCINKKNLAKSQTLLGKEIKILKELKHENIVALYDFQEMANSVYLVMEYCNGGDLADYLHAMRTLSEDTIRLFLQQIAGAMRLLHSKGIIHRDLKPQNILLSNPAGRRANPNSIRVKIADFGFARYLQSNMMAATLCGSPMYMAPEVIMSQHYDGKADLWSIGTIVYQCLTGKAPFQASSPQDLRLFYEKNKTLVPTIPRETSAPLRQLLLALLQRNHKDRMDFDEFFHHPFLDASPSVRKSPPVPVPSYPSSGSGSSSSSSSTSHLASPPSLGEMQQLQKTLASPADTAGFLHSSRDSGGSKDSSCDTDDFVMVPAQFPGDLVAEAPSAKPPPDSLMCSGSSLVASAGLESHGRTPSPSPPCSSSPSPSGRAGPFSSSRCGASVPIPVPTQVQNYQRIERNLQSPTQFQTPRSSAIRRSGSTSPLGFARASPSPPAHAEHGGVLARKMSLGGGRPYTPSPQVGTIPERPGWSGTPSPQGAEMRGGRSPRPGSSAPEHSPRTSGLGCRLHSAPNLSDLHVVRPKLPKPPTDPLGAVFSPPQASPPQPSHGLQSCRNLRGSPKLPDFLQRNPLPPILGSPTKAVPSFDFPKTPSSQNLLALLARQGVVMTPPRNRTLPDLSEVGPFHGQPLGPGLRPGEDPKGPFGRSFSTSRLTDLLLKAAFGTQAPDPGSTESLQEKPMEIAPSAGFGGSLHPGARAGGTSSPSPVVFTVGSPPSGSTPPQGPRTRMFSAGPTGSASSSARHLVPGPCSEAPAPELPAPGHGCSFADPITANLEGAVTFEAPDLPEETLMEQEHTEILRGLRFTLLFVQHVLEIAALKGSASEAAGGPEYQLQESVVADQISLLSREWGFAEQLVLYLKVAELLSSGLQSAIDQIRAGKLCLSSTVKQVVRRLNELYKASVVSCQGLSLRLQRFFLDKQRLLDRIHSITAERLIFSHAVQMVQSAALDEMFQHREGCVPRYHKALLLLEGLQHMLSDQADIENVTKCKLCIERRLSALLTGICA"
,binds,"His-STX17 157–275 (domain or fragment, UniProt P56962 157-275, looked up, in the vector pET-26b(+); source: E. coli BL21 codon plus, purified; not shown: His6, C-terminal, kept) YALPEIPQDQNAAESWETLEADLIELSQLVTDFSLLVNSQQEKIDSIADHVNSAAVNVEEGTKNLGKAAKYKLAALPVAGALIGGMVGGPIGLLAGFKVAGIAAALGGGVLGFTGGKLI"

# — paper PMC6113293, “Phosphorylation of ULK1 affects autophagosome fusion and links chaperone-mediated autophagy to macroautophagy” (Nature Communications, 2018)
